From patent US20260168005A1, “DRUG SCREENING METHOD BASED ON DRUG DISCOVERY CONCEPT OF CANCER CELL PROLIFERATION INHIBITION INDUCED BY DISRUPTION OF CHROMOSOME REGULATION DUE TO PLK1 KINASE ACTIVATION” (JAPANESE FOUNDATION FOR CANCER RESEARCH, priority 2022, published 2026)
No end group written: not given here.

Key:
HeLa cells = experiment: Cell death on expression of GFP-tagged PON peptide, live cell imaging; assay type: cell-based; settings: plasmid transfection, GFP tag at N-terminus, live cell imaging (FIG. 6B)
Source text: (§1) Plasmids that express WT ([…]: SEQ ID NO: 1) and a TA mutant (Plk1 unbound, […]: SEQ ID NO: 2) of the PON peptide with a GFP tag added to the N-terminus were introduced into HeLa cells by a plasmid transfection method with FuGENE HD transfection Reagent (Promega Corporation) and into RPE1 cells by a nucleofection method with 4D nucleofector (Lonza Group Ltd.). Since the PON peptide binds to the PBD upon phosphorylation by Cdk1, a TA mutant of the PON peptide in which the phosphorylation site was substituted with Ala was used as a negative control.
(§2) Observation was performed using live cell imaging, and the number of cells that underwent cell death in cells with GFP expression observed was counted. […] In other words, suppression of the association of the PBD and KD of endogenous Plk1 can cause significant cell growth suppression to be induced in cancer cells (FIG. 6B). From the fact that induction of cell death due to Plk1 activation is not observed in normal cells, compounds that activate Plk1 are expected to exert an effect in a cancer cell-specific manner.

RPE1 cells = experiment: as above; assay type: cell-based; settings: RPE1 normal diploid cells, nucleofection, GFP tag at N-terminus, live cell imaging (FIG. 6B)
Source text: as §1, §2

endogenous Plk1 = endogenous Plk1 (UniProt P53350); experiment: cell-based or functional assay
Sequence of endogenous Plk1 (P53350 2-603 limits assumed): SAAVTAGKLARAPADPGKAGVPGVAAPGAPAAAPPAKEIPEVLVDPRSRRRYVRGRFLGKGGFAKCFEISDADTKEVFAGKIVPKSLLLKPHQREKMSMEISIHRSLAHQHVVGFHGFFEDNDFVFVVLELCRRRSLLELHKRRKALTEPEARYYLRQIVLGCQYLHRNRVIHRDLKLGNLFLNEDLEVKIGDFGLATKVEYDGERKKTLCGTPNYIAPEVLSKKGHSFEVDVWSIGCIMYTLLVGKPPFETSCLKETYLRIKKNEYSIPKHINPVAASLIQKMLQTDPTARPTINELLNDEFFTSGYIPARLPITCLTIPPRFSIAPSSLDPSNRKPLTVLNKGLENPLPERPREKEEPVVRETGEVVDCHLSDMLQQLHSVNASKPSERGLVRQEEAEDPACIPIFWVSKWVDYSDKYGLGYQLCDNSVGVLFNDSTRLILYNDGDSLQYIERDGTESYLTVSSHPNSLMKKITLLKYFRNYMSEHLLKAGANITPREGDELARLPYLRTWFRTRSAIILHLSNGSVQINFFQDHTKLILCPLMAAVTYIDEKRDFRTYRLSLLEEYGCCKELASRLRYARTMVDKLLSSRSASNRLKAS

recombinant GST-His-Plk1 = recombinant GST-His-Plk1 (Homo sapiens, UniProt P53350); experiment: Intramolecular TR-FRET assay of kinase domain / Polo-Box domain association; assay type: binding; settings: Plk1 0 to 100 nM; pPON 0 to 1000 µM, PxVXL 25 to 100 µM; room temperature 1 hour, then GST-Tb and His-d2 3 hours (FIG. 7B)
Sequence of recombinant GST-His-Plk1 (P53350 whole entry, the tested form may be a part): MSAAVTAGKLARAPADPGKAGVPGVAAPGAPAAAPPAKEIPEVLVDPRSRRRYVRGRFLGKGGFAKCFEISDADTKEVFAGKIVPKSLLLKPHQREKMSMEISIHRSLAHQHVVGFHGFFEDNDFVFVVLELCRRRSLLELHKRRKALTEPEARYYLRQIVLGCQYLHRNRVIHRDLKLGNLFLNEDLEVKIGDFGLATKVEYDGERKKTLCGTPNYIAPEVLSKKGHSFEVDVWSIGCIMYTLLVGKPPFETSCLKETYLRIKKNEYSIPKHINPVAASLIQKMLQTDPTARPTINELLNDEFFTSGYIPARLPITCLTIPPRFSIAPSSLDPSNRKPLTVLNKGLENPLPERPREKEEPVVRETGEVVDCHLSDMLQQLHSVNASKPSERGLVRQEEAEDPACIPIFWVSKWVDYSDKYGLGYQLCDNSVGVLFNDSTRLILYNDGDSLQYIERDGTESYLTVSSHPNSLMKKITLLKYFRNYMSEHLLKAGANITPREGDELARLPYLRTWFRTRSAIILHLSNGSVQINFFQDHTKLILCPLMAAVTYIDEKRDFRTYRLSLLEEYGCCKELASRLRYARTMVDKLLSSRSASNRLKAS
Source text: In other words, it is an assay system that reflects the folding state within Plk1 molecules, and a screening system for drug discovery sees according to the mechanism of action of “inhibiting the suppressive association within the molecules to lead to kinase activation”. A fluorescence resonance energy transfer (FRET) assay system that detects the interaction of PBD that suppressively associates with the Plk1 kinase domain was constructed. The design was made as follows: a full-length recombinant protein was purified, and a donor (GST-Tb) were placed in the kinase domain and an acceptor (His-d2) in the PBD using antibodies that act as luminescent agents based on the conformational information so that the FRET reaction would efficiently occur.
A recombinant Plk1 in which a GST tag was added into a pFastBacl vector at the N-terminus, and a 6His-tag was inserted in the vicinity of the N-terminus of PB1 (Polo-Box 1) was constructed (left in FIG. 7A, GST-His-Plk1). […]
Intramolecular FRET analysis was performed using the recombinant GST-His-Plk1. […] Then, GST-Tb and His-d2 (PerkinElmer, Inc., MAb Anti-GST-Tb cryptate, MAb Anti-6HIS-d2) were added thereto to react at room temperature for 3 hours, and the emission signals were measured using the time-resolved fluorescence-fluorescence resonance energy transfer method (TR-FRET). […]

[1] = biological target: recombinant GST-His-Plk1 (WT) (Homo sapiens, UniProt P53350); experiment: ADP-Glo kinase assay with dephosphorylated casein substrate; assay type: biochemical; settings: pPON 0 to 1000 M; 0.5 μg dephosphorylated casein; 5 µM ATP; room temperature 1 hour (FIG. 10A)
Sequence of recombinant GST-His-Plk1 (WT) (Homo sapiens, UniProt P53350) (P53350 whole entry): as the sequence (P53350 whole entry, the tested form may be a part) above
Procedure: Further, the kinase activity of GST-His-Plk1 was evaluated by a kinase assay. First, it was confirmed that the kinase activity of the recombinant GST-His-Plk1, which contained a His-tag for FRET in the molecule, was equivalent to that of the one without the tag. Next, GST-His-Plk1 was used and mixed with 0.5 μg of dephosphorylated casein as a phosphorylation substrate in the presence of pPON ([…]), a kinase reaction was performed at room temperature for 1 hour in the presence of 5 µM of ATP, and a kinase reaction was performed between the recombinant GST-His-Plk1 (WT) (0 to 3.36 μM) and the dephosphorylated casein. Using an ADP-Glo (trademark) kinase assay kit (Promega Corporation), the kinase activity was measured by an ADP-Glo method, which quantifies in the […]. […] Also, the results of the kinase assays using the S137D/T210D mutant and S137D mutant also indicate that high kinase activity can be obtained when the intramolecular association is inhibited (FIG. 10B). Accordingly, the kinase assay can be used as a screening method that detects the association between the kinase domain and PBD of Plk1, and suppression of the association can be detected. Also, in the case of using the kinase assay for screening, a construct in which a kinase domain and PBD are separated can also be used.

[2] = biological target: T1, recombinant GST-His-Plk1 (WT) (UniProt P53350 2-603, limits assumed); experiment: intramolecular TR-FRET on GST-His-Plk1 (indirect read-out)
T1 construct: mature; Made in the Baculovirus/Sf9 system and purified on Glutathione Sepharose; also called Plk1 recombinant protein; wild-type GST-His-Plk1; not shown: N-terminal GST tag
T1 sequence (P53350 2-603 limits assumed): as the sequence (P53350 2-603 limits assumed) above

Molecule | death of cells (percentage of GFP-expressing cells that underwent cell death) (HeLa cells) | FRET signal (His-d2 relative to GST-Tb) (recombinant GST-His-Plk1) | other results
ESCFTNAAFSSTPKK [PON peptide] | ≥ 70% | – | increase in cell death (RPE1 cells): no increase in cell death was observed
PON peptide WT with a GFP tag added to the N-terminus | – | – | percentage of cell death in GFP-expressing HeLa cells (live cell imaging) (endogenous Plk1): > 70%
NHTQCQLVPVVEIGISERON (NHTQCQLVPVVEIGISERQN) [PxVXL, reference compound] | – | this effect was not observed | –
ESCFTNAAFSSAPKK [TA mutant, reference compound] | about 30% | – | –
pPON: pPON peptide (SEQ ID NO: 1) reacted with recombinant Plk1 in FRET and kinase assays (ESCFTNAAFSSTPKK; also: phosphorylated, position not given here) | – | FRET signals were reproducibly observed to gradually decrease | kinase activity [1]: kinase activity increased depending on the amount of pPON added
NHTQCQLVPVVEIGISERQN (Printed in the text as NHTQCQLVPVVEIGISERON; The 'O' may be a printing error) [PxVXL peptide (negative control peptide that does not bind to PLK1)] | – | – | binding result [2]: no binding (tested: 25 to 100 UM)
